Earlier results, collected in patent US20070184095A1, “OSMIUM COMPOUNDS FOR THE TREATMENT OF PSORIASIS” (priority 2006, published 2007).

In the case of Adalimumab, the “increase in incidence of serious infections” value (human, in vivo) is given as “two-fold” and the most notable complication (human, in vivo) is given as “reactivation of tuberculosis”.
In the case of “efalizumab: humanized monoclonal antibody against the CD11a subunit of LFA-1”, the “patients who developed hemolytic anaemia” value (human, in vivo) is given as “four”, the “patients with immune-mediated thrombocytopenia (platelet counts at or below 52,000 cells/microliter)” value (human, in vivo) is given as 0.3% and the “subjects developing antiefalizumab antibodies” value (human, in vivo) is given as “approximately 5%”. For the same substance, the “overall incidence of hospitalization for infections” value (placebo 1.2) was 1.6 per 100 patient-years.
In the case of “infliximab: chimeric (mouse-human) IgG1 monoclonal antibody, which binds to and inactivates TNF-α”, the reported adverse events (small percentage of treated patients) is listed as “pneumonia, tuberculosis, lymphoma, drug-induced lupus and hepatotoxicity”.
